Tests used:
complement C1q (human) [1] = target: complement C1q (human) (UniProt P02745); test: MST; fluorescently labelled C1q (RED-NHS) 40 nM; TsCRT, TsCRT^Δ, mutants or P^TsCRT gradient-diluted; 50 mM Hepes, 150 mM NaCl, 2 mM CaCl2, 0.05% Tween 20, pH 7.4; Monolith NT.115, LED power 20%, MST power 50%
complement C1q (human) [2] = target: complement C1q (human) (UniProt P02745); test: MST; with 20 uM TsCRT^Δ P143A/E144A competitor
complement C1q (human) [3] = target: complement C1q (human) (UniProt P02745); test: MST; with 20 uM TsCRT^Δ I140A/G142A competitor
complement C1q (human) [4] = target: complement C1q (human) (UniProt P02745); test: MST; with 20 uM TsCRT^Δ H46A/K47A/D49A competitor
complement C1q (human) [5] = target: complement C1q (human) (UniProt P02745); test: MST; IgG incubated with fluorescently labelled C1q (40 nM) alone, no competitor; 50 mM Hepes, 150 mM NaCl, 2 mM CaCl2, 0.05% Tween 20, pH 7.4; LED power 60%, MST power 50%
complement C1q (human) [6] = target: complement C1q (human) (UniProt P02745); test: MST; competitive binding: IgG with fluorescently labelled C1q (40 nM) in the presence of 20 µM TsCRT^Δ, a mutant or P^TsCRT; 50 mM Hepes, 150 mM NaCl, 2 mM CaCl2, 0.05% Tween 20, pH 7.4; LED power 60%, MST power 50%

Sequence of complement C1q (human) (P02745 23-245, chain 1 of 3): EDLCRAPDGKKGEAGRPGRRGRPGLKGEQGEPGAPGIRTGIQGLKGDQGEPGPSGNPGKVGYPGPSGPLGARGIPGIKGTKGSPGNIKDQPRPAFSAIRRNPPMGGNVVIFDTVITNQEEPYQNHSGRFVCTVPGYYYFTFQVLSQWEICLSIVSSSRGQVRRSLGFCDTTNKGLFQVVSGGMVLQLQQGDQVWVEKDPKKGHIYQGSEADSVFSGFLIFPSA
Sequence of complement C1q (human) (P02746 28-253, chain 2 of 3, further chain): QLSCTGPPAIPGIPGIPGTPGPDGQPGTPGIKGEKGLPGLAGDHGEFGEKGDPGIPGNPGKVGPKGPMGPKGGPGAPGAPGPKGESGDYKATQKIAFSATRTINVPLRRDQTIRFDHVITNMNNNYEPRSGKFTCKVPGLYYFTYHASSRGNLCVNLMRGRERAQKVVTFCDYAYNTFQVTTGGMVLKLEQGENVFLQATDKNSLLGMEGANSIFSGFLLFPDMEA
Sequence of complement C1q (human) (P02747 29-245, chain 3 of 3, further chain): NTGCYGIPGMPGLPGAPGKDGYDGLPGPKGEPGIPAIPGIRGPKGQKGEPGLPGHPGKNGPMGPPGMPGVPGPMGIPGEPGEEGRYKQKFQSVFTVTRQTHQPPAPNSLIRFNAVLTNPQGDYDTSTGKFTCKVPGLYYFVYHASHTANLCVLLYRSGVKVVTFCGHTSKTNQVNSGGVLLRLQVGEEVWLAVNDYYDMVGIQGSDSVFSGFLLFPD

## Trichinella spiralis calreticulin, full-length (natural protein)
Complement C1q (human) [1]
  Kd: 258 µM

## TsCRT^Δ mutant H46A/K47A/D49A (domain or fragment)
Complement C1q (human) [1]
  Kd: 54.5 µM

## TsCRT^Δ mutant I140A/G142A (domain or fragment)
Complement C1q (human) [1]
  Kd: 54.4 µM

## human IgG
Complement C1q (human) [2]
  Kd: 4.18 µM
Complement C1q (human) [3]
  Kd: 5.51 µM
Complement C1q (human) [4]
  Kd: 3.94 µM

## truncated Trichinella spiralis calreticulin TsCRT^Δ (22-209, GSG linker, 305-364) (domain or fragment)
Complement C1q (human) [1]
  Kd: 9.03 µM

## human IgG (antibody)
Complement C1q (human) [5]
  Kd: 0.14 µM
Complement C1q (human) [6]
  KD of C1q-IgG with P^TsCRT (20 µM): 172 µM
  KD of C1q-IgG with TsCRT^Δ (20 µM): 409 µM
  KD of C1q-IgG with the mutant D129A: 0.32 µM

## TsCRT^Δ mutant D129A (domain or fragment)
Complement C1q (human) [1]
  Kd: 124 µM

## TsCRT^Δ mutant P143A/E144A (domain or fragment)
Complement C1q (human) [1]
  Kd: 66.8 µM

Reference: paper PMC11059001
